Patent publication US20140363423A1 (NATIONAL TAIWAN UNIVERSITY, published 2014)
“And” between values parts separate entries of the source, which are not always exact repeats. Equal values may be shown once.

T1: platelet glycoprotein VI (GPVI) on washed human platelets (human), Q9HCN6
T1 chain: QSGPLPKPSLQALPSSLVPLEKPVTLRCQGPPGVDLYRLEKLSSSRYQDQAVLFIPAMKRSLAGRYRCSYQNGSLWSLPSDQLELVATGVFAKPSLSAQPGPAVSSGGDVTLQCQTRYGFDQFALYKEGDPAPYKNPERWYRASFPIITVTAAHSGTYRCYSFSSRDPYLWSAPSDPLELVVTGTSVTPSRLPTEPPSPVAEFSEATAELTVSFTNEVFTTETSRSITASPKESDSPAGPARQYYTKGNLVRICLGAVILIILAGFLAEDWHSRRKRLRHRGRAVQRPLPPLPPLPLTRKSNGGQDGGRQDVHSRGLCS

T2: platelet glycoprotein VI (GPVI) on washed human platelets (human, UniProt Q9HCN6 21-339)
T2 sequence: T1 chain

B1: decapeptide of trowaglerix α subunit (Troα10, …) (peptide)
peptide: GFCKWMNVAC
modifications: not checked
B2: Agk--β6 hexapeptide NQWLSR (peptide)
peptide: NQWLSR
B3: recombinant convulxin β subunit C-terminal (CVX β C-terminal 94-125) (peptide)
chain: EEFECLISRTFDNQWLSAPCSDTYSFVCKFEA
B4: CVX-α6 (Convulxin) hexapeptide RKWFVA (peptide)
peptide: RKWFVA
B5: recombinant convulxin α subunit C-terminal (CVX α C-terminal 104-135) (peptide)
chain: CSLLKKETGFRKWFVASCIGKIPFVCKFPPQC
B6: hexapeptide of trowaglerix α subunit (Troα6, CKWMNV) (peptide)
peptide: CKWMNV
B7: Agg-α6 (Aggretin) hexapeptide RKWVNY (peptide)
peptide: RKWVNY

Legend:
[1] = molecular target: platelet glycoprotein VI (GPVI) on washed human platelets (human) (UniProt Q9HCN6); experiment: cell-based or functional assay
[2] = molecular target: T1, platelet glycoprotein VI (GPVI) on …; experiment: cell-based or functional assay
[3] = molecular target: T2, platelet glycoprotein VI (GPVI) on …; experiment: cell-based or functional assay
[4] = molecular target: T2, platelet glycoprotein VI (GPVI) on …; experiment: flow cytometry on human platelets; inhibition of 6B12 (anti-GPVI) binding

Row | Molecule | Inhibition of the collagen-induced aggregation (%) at 100 µg/ml [1] [%] | Inhibition of the collagen-induced aggregation (%) at 100 µg/ml [3] [%] | also measured
1 | Tro-α6 M117A mutant hexapeptide CKWANV | 52.9 |  | 
2 | Tro-α6 W116A mutant hexapeptide CKAMNV | 12.3 |  | 
3 | d-form Tro-α6 hexapeptide C(dK)WM(dN)V | 89.4 |  | IC50, inhibition of the collagen-induced aggregation [1]: 6.82 µg/ml and 8.75 µM
4 | B1 |  |  | IC50, inhibition of the collagen-induced aggregation [2]: 30.4 µM; Inhibition of the collagen-induced aggregation (%) at 100 µg/ml [2]: 93.8%; inhibition on collagen-induced aggregation [2]: 60%
5 | B2 |  | 24.6 | 
6 | B3 |  |  | binding result [4]: binds
7 | B4 |  | 28.7 | 
8 | B5 |  |  | binding result [4]: binds
9 | B6 |  | 44.3 | IC50, inhibition of the collagen-induced aggregation [3]: 83.4 µg/ml and 107 µM
10 | B7 |  | 21.7 | 
